# According to patent US20080026992:
# Legend:
# [1] = tested on: p27Kip1, recombinant, tyrosine-phosphorylated in vitro by Abl kinase (Tyr-88 phosphorylated p27)
# [2] = tested on: mutant p27 Y88F, phosphorylated on Tyr-89 by recombinant Abl kinase
# [3] = tested on: p27Kip1, recombinant, unphosphorylated
# mutant p27 Y88F, phosphorylated on Tyr-89 by recombinant Abl kinase, sequence (chain, as listed by the source Y88F): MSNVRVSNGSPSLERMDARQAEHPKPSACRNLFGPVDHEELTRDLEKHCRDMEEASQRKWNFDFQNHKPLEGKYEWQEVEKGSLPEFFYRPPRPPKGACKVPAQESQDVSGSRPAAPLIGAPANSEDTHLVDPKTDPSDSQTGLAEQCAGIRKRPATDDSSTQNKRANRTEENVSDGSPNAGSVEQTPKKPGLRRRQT
substance,measurement,setting,value
"CDK2/cyclin A complex, recombinant, purified from Sf9 insect cells",phosphorylation of Thr-187 of p27 in CDK2 kinase complexes (Western blot with a phospho-threonine 187 specific antibody),[1],Phosphorylation of Thr-187 was indeed strongly enhanced if Tyr-88 phosphorylated p27 was incubated in CDK2 kinase complexes (FIG. 5b)
same,phosphorylation of p27 by CDK2 within p27/CDK2/cyclin A complexes (32P incorporation),[1],the tyrosine phosphorylated protein was a good substrate for CDK2 phosphorylation (FIG. 5a)
same,phosphorylation of Thr-187 of p27 in CDK2 kinase complexes (Western blot with a phospho-threonine 187 specific antibody),[2],a mutant phosphorylated on Tyr-89 is not a good substrate for CDK2-dependent phosphorylation (FIG. 5b)
same,phosphorylation of p27 by CDK2 within p27/CDK2/cyclin A complexes (32P incorporation),[3],"As expected, p27 was poorly phosphorylated due to the absence of free kinase"
